For one test, the target named is STAT5A-eYFP (murine) (UniProt P42230).
A further test addresses STAT5A (UniProt P42230). In words: biotin-peptide precipitation from lysate, GFP blot. Particulars: reference: non-phosphorylated Src peptide; sites Y416.

On to “vSrc^Y416F-dsRed (from UniProt P00524 1-526) (enzyme)”, for which, in the test with STAT5A-eYFP (murine), the subcellular distribution of STAT5A-eYFP in HeLa T-REx FRT cells expressing vSrc^Y416F-dsRed, nucleus/cytoplasm (n/c) ratio was 1.

For “Src-peptide (activation loop of cSrc (vSrc), Yes and Fyn) (from UniProt P00523) pY416 Src peptide”, the “binding against the reference” value with STAT5A is listed as “gained”.
